Experimental data published in the supplement of paper PMC9732359.
± gives the uncertainty stated by the source.

Test: protein stability index of a GFP-peptide fusion (yeast GPS) (PSI 1-4); higher = more stable; sorted into four equal gates, so the index is relative within each strain
Summary of the method: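 Yeast carrying a pooled library were grown to mid-log phase in leucine-free medium. Each library plasmid expresses Cherry and has a tiled 17-residue yeast protein peptide fused downstream of GFP. Cells were sorted into four equal gates by GFP/Cherry ratio, and plasmids from each gate were PCR-amplified, Illumina-sequenced and assigned to strains by barcode. Summing, across gates, the read frequency times the gate number gave each peptide's protein stability index.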

Sequence	protein stability index (doa10∆)	protein stability index (pdr5∆)	protein stability index (san1∆)	protein stability index (ubr1∆)
QTFNFDSFENYFNQLKP [RPN12]	2.76 ± 0.047	2.9 ± 0.064	3.05 ± 0.052	3 ± 0.046
NRSEQNGQEQQGPVKNT [RGR1]	3.26 ± 0.16	3.39 ± 0.14	3.11 ± 0.11	3.55 ± 0.22
PLQNIHVRKVKLLKQPK [RPS1A]	2.69 ± 0.075	2.82 ± 0.074	2.71 ± 0.051	2.53 ± 0.065
TSGTNIAGTFNVGKPDQ [YOR098C/NUP1]	3.22 ± 0.088	3.01 ± 0.11	3.27 ± 0.079	3.21 ± 0.1
PKDYIKKLLEVHDIFSK [CDC53]	1.46 ± 0.042	2.04 ± 0.06	1.75 ± 0.099	1.66 ± 0.04
SETPLQKTVNLKNIMKV [RPN4]	2.25 ± 0.08	2.6 ± 0.085	2.56 ± 0.11	2.48 ± 0.043
HFQDQKNKKIEVYTKTI [POP7]	3.19 ± 0.11	2.83 ± 0.12	3.23 ± 0.084	2.7 ± 0.086
IWFPEDFISPELIIDKV [MED1]	2.68 ± 0.068	2.66 ± 0.069	3.01 ± 0.075	2.94 ± 0.044
RMNTIITHPGKMELVYV [SIR4]	–	–	–	1.21 ± 0.24
FPESIWKDFTVEIAFLF [YCG1]	2.25 ± 0.06	2.43 ± 0.05	2.33 ± 0.067	2.29 ± 0.049
KVQISKIPILAQHESFL [RPN9]	1.97 ± 0.06	2.05 ± 0.045	2.16 ± 0.075	2.41 ± 0.037
QPEVAVKAAINFSNVTD [YIL149C/MLP2]	2.21 ± 0.064	2.44 ± 0.055	2.2 ± 0.071	2.55 ± 0.048
QYSTRHDAPRGLFPFES [SWI3]	3.14 ± 0.062	3.17 ± 0.073	3.2 ± 0.077	3.13 ± 0.067
RFWSFMKTQRFVSNMGF [SIR4]	1.55 ± 0.21	1.4 ± 0.11	1.82 ± 0.13	1.68 ± 0.048
KENGQLIGAATKFKGGK [SEC65]	1.7 ± 0.057	1.65 ± 0.073	1.54 ± 0.11	2.17 ± 0.072
GVDDQILATNSLRILAK [YJL039C/NUP192]	3.14 ± 0.13	3.08 ± 0.08	3.12 ± 0.069	3.24 ± 0.076
GMMSTTGTARLNSMPNN [YJL039C/NUP192]	–	2.99 ± 0.15	3.1 ± 0.089	3.22 ± 0.11
NTEITQKSSKENIENEE [ECM29]	3.05 ± 0.082	3.28 ± 0.087	2.76 ± 0.078	2.94 ± 0.09
GGESDSALILMYKGFGL [UBP6]	3.37 ± 0.07	3.41 ± 0.076	3.15 ± 0.085	3.29 ± 0.055
AFNRFMAESLVDLEEVM [SSN8]	1.57 ± 0.068	2.4 ± 0.078	2.36 ± 0.17	1.62 ± 0.059
TTESNSRLKALNLQFKA [YLR335W/NUP2]	3.25 ± 0.11	3.04 ± 0.064	3.15 ± 0.066	2.98 ± 0.073
YLIDHIKVDGAVGNLGN [RPL22B]	2.41 ± 0.23	2.49 ± 0.14	2.53 ± 0.066	2.61 ± 0.24
IKGNGESDETTTDNNNS [RPT1]	3.15 ± 0.15	–	3.38 ± 0.04	3.53 ± 0.11
VRVQFQFTGFLLHEMTQ [GRR1]	1.83 ± 0.067	2.08 ± 0.061	1.91 ± 0.074	1.85 ± 0.053
FVFTNEPLTEIKNVIVS [RPP0]	1.84 ± 0.057	2.68 ± 0.089	3.12 ± 0.076	2.73 ± 0.077
DESTIKRIKPNTEITQK [ECM29]	2.88 ± 0.051	2.96 ± 0.053	2.95 ± 0.046	2.91 ± 0.044
MIIFLKNYDATDKPFSS [CSI1]	2.63 ± 0.059	2.85 ± 0.062	2.92 ± 0.05	2.92 ± 0.048
LKTRDWIVVLPWFWLLP [POP1]	1.51 ± 0.12	–	1.5 ± 0.23	2.02 ± 0.1

Sequence	protein stability index (doa10∆)	protein stability index (pdr5∆)	protein stability index (san1∆)	protein stability index (ubr1∆)
VAKLANWFLEVYASGNP [YML031W/NDC1]	2.1 ± 0.069	2.09 ± 0.049	1.89 ± 0.12	1.12 ± 0.055
KPWFATVNGQARDLATM [FAS1]	3.01 ± 0.11	3.08 ± 0.1	3 ± 0.083	3.05 ± 0.064
SDKESNAYGFIEWCSRC [YJL039C/NUP192]	2.98 ± 0.066	2.79 ± 0.067	2.97 ± 0.053	2.73 ± 0.063
RQIRPIMERIKSSLSLR [ITC1]	1.26 ± 0.06	1.65 ± 0.075	1.35 ± 0.087	1.42 ± 0.054
ISLRNNMFELAQQLVGV [SMC4]	1.24 ± 0.089	1.74 ± 0.079	1.78 ± 0.093	1.87 ± 0.084
VAGAIRAGIIIAKLSVI [RPS2]	1.91 ± 0.1	2.35 ± 0.098	1.4 ± 0.13	2.65 ± 0.083
RKKKFVLDVDPKYAKQK [ISW2]	2.91 ± 0.077	2.45 ± 0.066	2.25 ± 0.12	2.66 ± 0.076
KNDKLIKIEDFVDDMLR [SNF5]	2.88 ± 0.063	2.73 ± 0.066	1.98 ± 0.078	2.68 ± 0.07
TTGISSTGAADGGYNAQ [SMC2]	3.32 ± 0.13	3.4 ± 0.093	3.23 ± 0.069	3.17 ± 0.11
ISVGESGDRLTRASKVL [RPL11A]	–	3.08 ± 0.19	–	3.4 ± 0.22
NVKTSVSQLYRISEKSV [RPO31]	3.04 ± 0.11	3.22 ± 0.1	3.12 ± 0.076	3.16 ± 0.083
ELTAQGYDPALLNILSG [RPN2]	2.76 ± 0.091	3.06 ± 0.12	2.58 ± 0.071	2.89 ± 0.079
PEDALVNDFSDITSDQL [SMC3]	3.32 ± 0.076	2.85 ± 0.091	3.15 ± 0.081	3.31 ± 0.062
FVNGVWHGVHRNPARLM [RPB2]	1.68 ± 0.11	1.44 ± 0.067	3.39 ± 0.058	1.5 ± 0.042
VQIKDVNDRYQIPTPNN [CSI1]	1.72 ± 0.05	2.25 ± 0.064	1.75 ± 0.12	1.73 ± 0.049
SVLQLIVSEDHIILDTI [MED1]	2.2 ± 0.17	2.7 ± 0.19	–	2.08 ± 0.26
SSLYEASLNALKESIKN [RPN1]	3.26 ± 0.1	3.1 ± 0.1	3.38 ± 0.085	3.08 ± 0.065
VPGPGTKLIQYEHNGRT [CSL4]	3 ± 0.092	3.06 ± 0.058	3.25 ± 0.066	3.09 ± 0.056
SKKGSLENNIREFPEYF [RPL10]	2.95 ± 0.12	3.23 ± 0.084	3.29 ± 0.057	3.36 ± 0.069
QKTVNLKNIMKVSDPYV [RPN4]	2.32 ± 0.084	2 ± 0.11	2.48 ± 0.1	1.82 ± 0.058
ENDHERGFFHLNEALLQ [CSN12]	3.08 ± 0.075	2.91 ± 0.062	3.28 ± 0.09	3.06 ± 0.082
SKASMQKEQNVNNRDSE [YCS4]	2.78 ± 0.069	2.98 ± 0.067	2.05 ± 0.076	2.77 ± 0.042
QAEATEWAEENADNVEW [RPS0A]	2.18 ± 0.11	1.8 ± 0.11	2.27 ± 0.083	2.41 ± 0.066
PLGVILTFVSVDEELGP [SCL1]	1.72 ± 0.039	1.9 ± 0.037	2.67 ± 0.052	2.46 ± 0.04
NFYIQYDPKDGLYKMME [AAR2]	–	2.21 ± 0.14	–	–
DVLINELLDQVTLGREG [CDC53]	3.06 ± 0.078	3.1 ± 0.073	3.06 ± 0.08	3.17 ± 0.066
ENPTDNFIIWINSIDTT [GRR1]	2.44 ± 0.045	2.51 ± 0.053	2.61 ± 0.049	2.74 ± 0.048
